{
  "source": "paper PMC10786891",
  "about": "“Massively parallel profiling of RNA-targeting CRISPR-Cas13d”",
  "binders": {"B1": {"name": "target 2 MT 5'PFS AUG 3'PFS UGU (mixed)", "RNA 1": "CACCCGUGCAAAAUUGCAGGGGUCUAAAACCUUCUCCAAAUUGUUUCAUCCU", "RNA 2": "GGGAAUGGAUCCACAUCUACGAAUUCAUGAGGAUGAAACAAUUUGGAGAAGUGUAGAUCGGAAGAGCACACGU"}, "B2": {"name": "target 2 MT 5'PFS AUA 3'PFS CAC (mixed)", "RNA 1": "B1 RNA 1", "RNA 2": "B1 RNA 2 with G29A, U52C, G53A, U54C"}, "B3": {"name": "target 2 MT 5'PFS UAC 3'PFS CGC (mixed)", "RNA 1": "B1 RNA 1", "RNA 2": "B1 RNA 2 with A27U, U28A, G29C, U52C, U54C"}, "B4": {"name": "target 2 MT 5'PFS CGA 3'PFS AAA (mixed)", "RNA 1": "B1 RNA 1", "RNA 2": "B1 RNA 2 with A27C, U28G, G29A, U52A, G53A, U54A"}, "B5": {"name": "target 2 MT 5'PFS CUG 3'PFS UCA (mixed)", "RNA 1": "B1 RNA 1", "RNA 2": "B1 RNA 2 with A27C, G53C, U54A"}, "B6": {"name": "target 2 MT 5'PFS GCC 3'PFS ACA (mixed)", "RNA 1": "B1 RNA 1", "RNA 2": "B1 RNA 2 with A27G, U28C, G29C, U52A, G53C, U54A"}, "B7": {"name": "target 2 MT 5'PFS GCC 3'PFS ACG (mixed)", "RNA 1": "B1 RNA 1", "RNA 2": "B1 RNA 2 with A27G, U28C, G29C, U52A, G53C, U54G"}, "B8": {"name": "target 2 MT 5'PFS GGU 3'PFS UGC (mixed)", "RNA 1": "B1 RNA 1", "RNA 2": "B1 RNA 2 with A27G, U28G, G29U, U54C"}, "B9": {"name": "target 2 MT 5'PFS GCC 3'PFS ACU (mixed)", "RNA 1": "B1 RNA 1", "RNA 2": "B1 RNA 2 with A27G, U28C, G29C, U52A, G53C"}, "B10": {"name": "target 2 MT 5'PFS AUA 3'PFS CAU (mixed)", "RNA 1": "B1 RNA 1", "RNA 2": "B1 RNA 2 with G29A, U52C, G53A"}, "B11": {"name": "target 2 MT 5'PFS GUC 3'PFS AGU (mixed)", "RNA 1": "B1 RNA 1", "RNA 2": "B1 RNA 2 with A27G, G29C, U52A"}, "B12": {"name": "target 2 MT 5'PFS AUA 3'PFS CAG (mixed)", "RNA 1": "B1 RNA 1", "RNA 2": "B1 RNA 2 with G29A, U52C, G53A, U54G"}, "B13": {"name": "target 2 MT 5'PFS AAU 3'PFS ACU (mixed)", "RNA 1": "B1 RNA 1", "RNA 2": "B1 RNA 2 with U28A, G29U, U52A, G53C"}, "B14": {"name": "target 2 MT 5'PFS UAC 3'PFS CGA (mixed)", "RNA 1": "B1 RNA 1", "RNA 2": "B1 RNA 2 with A27U, U28A, G29C, U52C, U54A"}, "B15": {"name": "target 2 MT 5'PFS GUC 3'PFS CGU (mixed)", "RNA 1": "B1 RNA 1", "RNA 2": "B1 RNA 2 with A27G, G29C, U52C"}, "B16": {"name": "target 2 MT 5'PFS UAA 3'PFS AGG (mixed)", "RNA 1": "B1 RNA 1", "RNA 2": "B1 RNA 2 with A27U, U28A, G29A, U52A, U54G"}, "B17": {"name": "target 2 MT 5'PFS CUG 3'PFS UCG (mixed)", "RNA 1": "B1 RNA 1", "RNA 2": "B1 RNA 2 with A27C, G53C, U54G"}, "B18": {"name": "target 2 MT 5'PFS AUA 3'PFS ACU (mixed)", "RNA 1": "B1 RNA 1", "RNA 2": "B1 RNA 2 with G29A, U52A, G53C"}, "B19": {"name": "target 2 MT 5'PFS GUC 3'PFS CGG (mixed)", "RNA 1": "B1 RNA 1", "RNA 2": "B1 RNA 2 with A27G, G29C, U52C, U54G"}, "B20": {"name": "target 2 MT 5'PFS CUG 3'PFS UCU (mixed)", "RNA 1": "B1 RNA 1", "RNA 2": "B1 RNA 2 with A27C, G53C"}, "B21": {"name": "target 2 MT 5'PFS AUA 3'PFS CAA (mixed)", "RNA 1": "B1 RNA 1", "RNA 2": "B1 RNA 2 with G29A, U52C, G53A, U54A"}, "B22": {"name": "target 2 MT 5'PFS GGU 3'PFS UGU (mixed)", "RNA 1": "B1 RNA 1", "RNA 2": "B1 RNA 2 with A27G, U28G, G29U"}, "B23": {"name": "target 2 MT 5'PFS ACC 3'PFS ACA (mixed)", "RNA 1": "B1 RNA 1", "RNA 2": "B1 RNA 2 with U28C, G29C, U52A, G53C, U54A"}, "B24": {"name": "target 2 MT 5'PFS CGA 3'PFS AAC (mixed)", "RNA 1": "B1 RNA 1", "RNA 2": "B1 RNA 2 with A27C, U28G, G29A, U52A, G53A, U54C"}, "B25": {"name": "target 2 MT 5'PFS GUC 3'PFS CGA (mixed)", "RNA 1": "B1 RNA 1", "RNA 2": "B1 RNA 2 with A27G, G29C, U52C, U54A"}, "B26": {"name": "target 2 MT 5'PFS GUC 3'PFS CGC (mixed)", "RNA 1": "B1 RNA 1", "RNA 2": "B1 RNA 2 with A27G, G29C, U52C, U54C"}, "B27": {"name": "target 2 MT 5'PFS UAC 3'PFS CGG (mixed)", "RNA 1": "B1 RNA 1", "RNA 2": "B1 RNA 2 with A27U, U28A, G29C, U52C, U54G"}, "B28": {"name": "target 2 MT 5'PFS UAA 3'PFS AGC (mixed)", "RNA 1": "B1 RNA 1", "RNA 2": "B1 RNA 2 with A27U, U28A, G29A, U52A, U54C"}, "B29": {"name": "target 2 MT 5'PFS CUG 3'PFS UCC (mixed)", "RNA 1": "B1 RNA 1", "RNA 2": "B1 RNA 2 with A27C, G53C, U54C"}, "B30": {"name": "target 2 MT 5'PFS UAA 3'PFS AGA (mixed)", "RNA 1": "B1 RNA 1", "RNA 2": "B1 RNA 2 with A27U, U28A, G29A, U52A, U54A"}, "B31": {"name": "target 1 C6G,G15C (mixed)", "RNA 1": "CACCCGUGCAAAAAUGCAGGGGUCUAAAACUGAGCGGAUAACCUCUCUAUGG", "RNA 2": "GGGAAUGGAUCCACAUCUACGAAUUCGUACCAUAGACAGGUUAUCGGCUCACCGAGAUCGGAAGAGCACACGU"}, "B32": {"name": "target 1 C6U,A14U (mixed)", "RNA 1": "B31 RNA 1", "RNA 2": "B31 RNA 2 with C37G, A38U, G46U"}, "B33": {"name": "target 1 G5U,C6G (mixed)", "RNA 1": "B31 RNA 1", "RNA 2": "B31 RNA 2 with C37G, G47U"}},
  "note": "Residue numbers refer to the chain shown, from its start. Names may count otherwise.",
  "data": [
    {"target": "T1, EsCas13d, nuclease-dead (Eubacterium siraeum, UniProt B0MS50, R295A;H300A;R849A;H854A)", "T1 sequence": "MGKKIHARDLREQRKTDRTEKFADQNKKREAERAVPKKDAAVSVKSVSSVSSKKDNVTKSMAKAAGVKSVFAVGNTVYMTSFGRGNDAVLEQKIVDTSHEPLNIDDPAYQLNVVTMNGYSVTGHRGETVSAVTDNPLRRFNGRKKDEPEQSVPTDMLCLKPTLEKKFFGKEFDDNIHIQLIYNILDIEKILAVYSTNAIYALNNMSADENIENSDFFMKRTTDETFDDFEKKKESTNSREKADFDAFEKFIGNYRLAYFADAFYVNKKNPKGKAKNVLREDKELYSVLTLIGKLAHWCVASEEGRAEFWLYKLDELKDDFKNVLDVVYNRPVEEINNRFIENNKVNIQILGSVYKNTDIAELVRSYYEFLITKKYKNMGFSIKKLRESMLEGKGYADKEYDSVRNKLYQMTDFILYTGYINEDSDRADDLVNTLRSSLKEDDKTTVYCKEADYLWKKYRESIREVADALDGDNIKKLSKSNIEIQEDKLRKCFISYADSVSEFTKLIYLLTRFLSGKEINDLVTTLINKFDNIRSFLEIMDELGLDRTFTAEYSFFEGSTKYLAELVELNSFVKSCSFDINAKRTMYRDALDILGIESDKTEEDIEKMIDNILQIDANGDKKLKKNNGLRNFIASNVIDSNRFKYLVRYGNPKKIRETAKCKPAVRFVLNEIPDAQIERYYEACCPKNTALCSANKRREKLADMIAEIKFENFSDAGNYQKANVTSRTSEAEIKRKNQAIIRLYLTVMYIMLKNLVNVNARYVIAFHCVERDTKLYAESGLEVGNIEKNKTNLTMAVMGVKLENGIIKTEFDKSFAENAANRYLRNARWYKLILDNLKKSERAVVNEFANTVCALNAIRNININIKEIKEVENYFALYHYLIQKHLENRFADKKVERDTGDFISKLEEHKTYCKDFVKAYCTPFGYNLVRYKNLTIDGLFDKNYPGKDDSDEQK", "test": "crRNA (strand 1, pre-loaded); Mg2+; 40 mM Tris-HCl pH 7.5, 150 mM NaCl, 6 mM MgCl2, 1 mM DTT, 0.1% Tween-20, 0.2 mg/ml BSA; 25 C; 10 min per concentration, then washed", "conditions": "tags: His6-TwinStrep-SUMO cleaved; N-terminal SNAP kept (SNAP-Surface 488); label: 3' end held by stalled T7 RNA polymerase", "units": {"Kd": "nM"}, "values": [
      {"binder": "B1", "Kd": "21 ± 2.6"},
      {"binder": "B2", "Kd": "5.4 ± 1.1"},
      {"binder": "B3", "Kd": "5.5 ± 0.8"},
      {"binder": "B4", "Kd": "13 ± 5"},
      {"binder": "B5", "Kd": "5 ± 0.6"},
      {"binder": "B6", "Kd": "10.8 ± 1.1"},
      {"binder": "B7", "Kd": "12.2 ± 1.4"},
      {"binder": "B8", "Kd": "23 ± 4"},
      {"binder": "B9", "Kd": "12.9 ± 1.9"},
      {"binder": "B10", "Kd": "4.6 ± 0.8"},
      {"binder": "B11", "Kd": "16.5 ± 2.6"},
      {"binder": "B12", "Kd": "8.4 ± 2.6"},
      {"binder": "B13", "Kd": "6.2 ± 0.7"},
      {"binder": "B14", "Kd": "6 ± 1.9"},
      {"binder": "B15", "Kd": "17.5 ± 2.8"},
      {"binder": "B16", "Kd": "4.5 ± 0.6"},
      {"binder": "B17", "Kd": "3.1 ± 0.4"},
      {"binder": "B18", "Kd": "10.7 ± 1.4"},
      {"binder": "B19", "Kd": "18.3 ± 2.1"},
      {"binder": "B20", "Kd": "6.3 ± 0.4"},
      {"binder": "B21", "Kd": "4.6 ± 1.3"},
      {"binder": "B22", "Kd": "33 ± 4"},
      {"binder": "B23", "Kd": "8 ± 4"},
      {"binder": "B24", "Kd": "7.5 ± 1.1"},
      {"binder": "B25", "Kd": "8.7 ± 0.7"},
      {"binder": "B26", "Kd": "16.9 ± 1.3"},
      {"binder": "B27", "Kd": "3.6 ± 0.5"},
      {"binder": "B28", "Kd": "3.2 ± 0.4"},
      {"binder": "B29", "Kd": "6.1 ± 0.5"},
      {"binder": "B30", "Kd": "3.4 ± 0.6"},
      {"binder": "B31", "Kd": "47 ± 10"},
      {"binder": "B32", "Kd": "58 ± 20"},
      {"binder": "B33", "Kd": "9.5 ± 0.32"}
    ]}
  ]
}
